# Columns and labels:
# HLA-A*30:01 = experiment: IEDB peptide-MHC binding, purified MHC/competitive/radioactivity; filed as Kd, often an IC50 or EC50 that approximates it; ≥ and ≤ were set here for values at or beyond the usual limits of such assays
# HLA-A*02:01 = experiment: IEDB peptide-MHC binding, purified MHC/competitive/fluorescence; ≥ and ≤ were set here for values at or beyond the usual limits of such assays
# HLA-A*01:01 = experiment: IEDB peptide-MHC binding, purified MHC/competitive/radioactivity; filed as Kd, often an IC50 or EC50 that approximates it; ≥ and ≤ were set here for values at or beyond the usual limits of such assays
# HLA-A*30:02 = experiment: as above
# HLA-A*23:01 = experiment: as above
# HLA-A*26:01 = experiment: as above
# HLA-A*29:02 = experiment: as above
# HLA-A*24:02 = experiment: as above
# HLA-A*33:01 = experiment: as above; conditions: source organism: Mammarenavirus brazilense
# HLA-A*68:01 = experiment: as above; conditions: source organism: Mammarenavirus brazilense
# HLA-A*31:01 = experiment: as above; conditions: source organism: Mammarenavirus brazilense
# HLA-A*03:01 = experiment: as above
# HLA-A*11:01 = experiment: as above; conditions: source organism: Dengue virus 2 Jamaica/1409/1983
# [1] = source organism: Vaccinia virus WR
# [2] = source organism: Zaire ebolavirus
# [3] = source organism: SARS coronavirus Tor2
# [4] = source organism: Dengue virus 2 Jamaica/1409/1983
# [5] = source organism: Dengue virus 3 Singapore/8120/1995
# [6] = source organism: Mammarenavirus brazilense
# [7] = source organism: Dengue virus 4 Philippines/H241/1956
# [8] = source organism: Lassa virus Josiah
# [9] = source organism: Sudan ebolavirus
# [10] = source organism: Dengue virus 1 Brazil/97-11/1997
# [11] = source organism: Mammarenavirus machupoense
# [12] = source organism: Mammarenavirus lassaense
# [13] = source organism: Mammarenavirus guanaritoense
sequence,measurement,setting,value
KVHEISARG,Kd,HLA-A*30:01; [1],176 nM
GLDDQEKKI,IC50,HLA-A*02:01; [2],41200 nM
TYHPNCINCL,Kd,HLA-A*01:01; [3],≥ 70400 nM
same,Kd,HLA-A*30:02; [3],≥ 37200 nM
same,Kd,HLA-A*23:01; [3],1150 nM
same,Kd,HLA-A*26:01; [3],≥ 69700 nM
same,Kd,HLA-A*29:02; [3],5580 nM
same,Kd,HLA-A*24:02; [3],663 nM
RTRVGTKHA,Kd,HLA-A*30:01; [4],0.02 nM
ILPEEQDQNY,Kd,HLA-A*01:01; [5],≥ 38700 nM
same,Kd,HLA-A*30:02; [5],≥ 37200 nM
LYALITEQF,Kd,HLA-A*23:01; [6],2.79 nM
same,Kd,HLA-A*29:02; [6],731 nM
same,Kd,HLA-A*24:02; [6],16.8 nM
AGKRSLRPQP,Kd,HLA-A*30:01; [4],1900 nM
VYKEGTFHTM,Kd,HLA-A*24:02; [4],14.7 nM
FARLLNLSG,IC50,HLA-A*02:01; [2],48200 nM
ESWILRNPGF,Kd,HLA-A*26:01; [7],9730 nM
same,Kd,HLA-A*30:01; [7],427 nM
YCNYSKYWY,Kd,HLA-A*01:01; [8],15800 nM
same,Kd,HLA-A*30:02; [8],668 nM
same,Kd,HLA-A*23:01; [8],13600 nM
same,Kd,HLA-A*26:01; [8],≥ 77900 nM
same,Kd,HLA-A*29:02; [8],713 nM
same,Kd,HLA-A*24:02; [8],≥ 44400 nM
VDTRTPRPMP,Kd,HLA-A*30:01; source organism: Dengue virus 3 Sri Lanka/1266/2000,415 nM
GLRQLANET,IC50,HLA-A*02:01; [9],34200 nM
HSYGIDLKSY,Kd,HLA-A*01:01; [3],80.6 nM
same,Kd,HLA-A*30:02; [3],7.12 nM
same,Kd,HLA-A*23:01; [3],≥ 70000 nM
same,Kd,HLA-A*26:01; [3],451 nM
same,Kd,HLA-A*29:02; [3],29.2 nM
same,Kd,HLA-A*24:02; [3],≥ 56400 nM
HSLISNLLV,Kd,HLA-A*30:01; source organism: Vaccinia virus Copenhagen,558 nM
SFGCKPLTMF,Kd,HLA-A*23:01; [10],103 nM
VTDTNKFAHY,Kd,HLA-A*01:01; source organism: Variola virus,13.6 nM
same,Kd,HLA-A*30:02; source organism: Variola virus,1290 nM
same,Kd,HLA-A*23:01; source organism: Variola virus,≥ 50200 nM
same,Kd,HLA-A*26:01; source organism: Variola virus,≥ 69700 nM
same,Kd,HLA-A*29:02; source organism: Variola virus,≥ 25500 nM
same,Kd,HLA-A*24:02; source organism: Variola virus,≥ 70300 nM
DYAEISFML,Kd,HLA-A*01:01; [3],≥ 22500 nM
same,Kd,HLA-A*30:02; [3],440 nM
same,Kd,HLA-A*23:01; [3],≥ 90700 nM
same,Kd,HLA-A*26:01; [3],≥ 68900 nM
same,Kd,HLA-A*29:02; [3],100 nM
same,Kd,HLA-A*24:02; [3],≥ 105000 nM
LAAEWVLAY,Kd,HLA-A*01:01; [3],35.5 nM
same,Kd,HLA-A*30:02; [3],16.3 nM
same,Kd,HLA-A*23:01; [3],≥ 40300 nM
same,Kd,HLA-A*26:01; [3],75.2 nM
same,Kd,HLA-A*29:02; [3],0.47 nM
same,Kd,HLA-A*24:02; [3],≥ 41100 nM
YIESKRGVY,Kd,HLA-A*01:01; [3],145 nM
same,Kd,HLA-A*30:02; [3],47 nM
same,Kd,HLA-A*23:01; [3],≥ 77800 nM
same,Kd,HLA-A*26:01; [3],735 nM
same,Kd,HLA-A*29:02; [3],20.3 nM
same,Kd,HLA-A*24:02; [3],≥ 77600 nM
RAEVSLHEV,Kd,HLA-A*01:01; [11],≥ 66200 nM
same,Kd,HLA-A*30:02; [11],≥ 41200 nM
same,Kd,HLA-A*23:01; [11],≥ 77700 nM
same,Kd,HLA-A*26:01; [11],≥ 77900 nM
same,Kd,HLA-A*29:02; [11],≥ 78900 nM
same,Kd,HLA-A*24:02; [11],≥ 77500 nM
SLNITTLRAV,Kd,HLA-A*01:01; [12],≥ 70400 nM
same,Kd,HLA-A*30:02; [12],1700 nM
same,Kd,HLA-A*23:01; [12],≥ 70000 nM
same,Kd,HLA-A*26:01; [12],≥ 69700 nM
same,Kd,HLA-A*29:02; [12],≥ 71400 nM
same,Kd,HLA-A*24:02; [12],≥ 70300 nM
TWSIHAHHQW,Kd,HLA-A*23:01; [10],950 nM
same,Kd,HLA-A*24:02; [10],1080 nM
KVNPEIDTT,IC50,HLA-A*02:01; [2],≥ 120000 nM
QDQDHTQEA,IC50,HLA-A*02:01; [2],≥ 321000 nM
KNKESLPML,Kd,HLA-A*30:01; [1],18.3 nM
SSQRDTILK,Kd,HLA-A*33:01,≥ 24200 nM
same,Kd,HLA-A*30:01; [6],46.5 nM
same,Kd,HLA-A*68:01,388 nM
same,Kd,HLA-A*31:01,2570 nM
same,Kd,HLA-A*03:01; [6],270 nM
DEEGNLLDSY,Kd,HLA-A*01:01; [3],≥ 92600 nM
same,Kd,HLA-A*30:02; [3],8980 nM
same,Kd,HLA-A*23:01; [3],≥ 58100 nM
same,Kd,HLA-A*26:01; [3],≥ 71600 nM
same,Kd,HLA-A*29:02; [3],7260 nM
same,Kd,HLA-A*24:02; [3],≥ 70300 nM
TSSGDATTAY,Kd,HLA-A*01:01; [3],63.8 nM
same,Kd,HLA-A*30:02; [3],606 nM
same,Kd,HLA-A*23:01; [3],≥ 70000 nM
same,Kd,HLA-A*26:01; [3],646 nM
same,Kd,HLA-A*29:02; [3],98.8 nM
same,Kd,HLA-A*24:02; [3],≥ 70300 nM
ILSDDAVVCY,Kd,HLA-A*01:01; [3],10.2 nM
same,Kd,HLA-A*30:02; [3],2100 nM
same,Kd,HLA-A*23:01; [3],≥ 70000 nM
same,Kd,HLA-A*26:01; [3],≥ 38800 nM
same,Kd,HLA-A*29:02; [3],320 nM
same,Kd,HLA-A*24:02; [3],≥ 70300 nM
SILASSLLK,Kd,HLA-A*11:01,11 nM
same,Kd,HLA-A*30:01; [4],190 nM
same,Kd,HLA-A*03:01; [4],13.8 nM
IFITDNVHTW,Kd,HLA-A*23:01; [4],36.7 nM
INYCLDFLF,Kd,HLA-A*23:01; [13],56.5 nM
same,Kd,HLA-A*29:02; [13],125 nM
same,Kd,HLA-A*24:02; [13],1270 nM
RLGPTLMCL,IC50,HLA-A*02:01; source organism: Homo sapiens,1780 nM
FSGLLIVKT,IC50,HLA-A*02:01; [2],≥ 370000 nM
RFLYIIKLVF,Kd,HLA-A*01:01; [3],1060 nM
same,Kd,HLA-A*30:02; [3],1190 nM
same,Kd,HLA-A*23:01; [3],0.0321 nM
same,Kd,HLA-A*26:01; [3],16600 nM
same,Kd,HLA-A*29:02; [3],1050 nM
same,Kd,HLA-A*24:02; [3],13.3 nM
MTDDIGMGVT,Kd,HLA-A*01:01; [4],1130 nM
KTMGSCIQM,Kd,HLA-A*30:01; [1],52.3 nM
FKIDNNTFV,IC50,HLA-A*02:01; [9],40800 nM
LIGNEEYTDY,Kd,HLA-A*01:01; [4],1070 nM
EWSVATFYLF,Kd,HLA-A*01:01; [3],1160 nM
same,Kd,HLA-A*30:02; [3],1730 nM
same,Kd,HLA-A*23:01; [3],0.0328 nM
same,Kd,HLA-A*29:02; [3],17.4 nM
same,Kd,HLA-A*24:02; [3],27.2 nM
